The results in this text go back to patent US7094873.

Assay [1] deals with Hsp90 in rabbit reticulocyte lysate (Hsp90 heterocomplex) (rabbit) (UniProt P30947). Description: rabbit reticulocyte lysate with recombinant CHIP, immunoprecipitation of Hsp90 with 3G3, Western blot; displaced molecule: Hop. For orientation: A western blot detects proteins with antibodies after separation by electrophoresis.
Assay [2] shares this target. The assay can be described thus: reticulocyte lysate with 35S-labeled GR, with or without CHIP, immunoprecipitation of Hsp90 with 3G3; displaced molecule: GR.

Hsp90 in rabbit reticulocyte lysate (Hsp90 heterocomplex) (rabbit), sequence (P30947 2-726, one chain of several): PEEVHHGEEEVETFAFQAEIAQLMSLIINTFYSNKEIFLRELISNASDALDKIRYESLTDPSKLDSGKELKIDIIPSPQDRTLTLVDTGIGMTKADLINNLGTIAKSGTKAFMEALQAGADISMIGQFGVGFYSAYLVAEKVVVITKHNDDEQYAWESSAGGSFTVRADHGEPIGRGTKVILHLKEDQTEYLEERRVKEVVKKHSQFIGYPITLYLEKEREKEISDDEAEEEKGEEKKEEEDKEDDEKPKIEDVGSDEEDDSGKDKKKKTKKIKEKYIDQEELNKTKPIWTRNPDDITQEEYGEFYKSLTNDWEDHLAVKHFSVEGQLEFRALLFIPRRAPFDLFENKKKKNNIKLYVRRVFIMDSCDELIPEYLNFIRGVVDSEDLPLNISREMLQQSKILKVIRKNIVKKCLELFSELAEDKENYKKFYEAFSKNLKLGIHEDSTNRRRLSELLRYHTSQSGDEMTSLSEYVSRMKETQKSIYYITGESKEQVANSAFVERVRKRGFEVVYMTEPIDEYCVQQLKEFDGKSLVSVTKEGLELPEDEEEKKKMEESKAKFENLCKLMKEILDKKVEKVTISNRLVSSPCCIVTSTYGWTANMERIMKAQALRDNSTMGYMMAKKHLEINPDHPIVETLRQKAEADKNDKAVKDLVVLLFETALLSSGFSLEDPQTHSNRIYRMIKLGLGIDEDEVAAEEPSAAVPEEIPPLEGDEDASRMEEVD

For the substance “Recombinant hCHIP (His-tagged fusion from plasmid pET-hCHIP, expressed in E. coli BL21) (from UniProt Q9UNE7 1-303)”, the decrease of the amount of Hop associated with the Hsp90 complex in assay [1] worked out at 50%. For the same substance, the decrease of GR co-precipitated with Hsp90 in assay [2] stood at 50%.
